experiment: soluble fraction after stress (log2 fold change); higher = more stays soluble; pooled small domains, quantitative proteomics; conditions: stress: 75 degC
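Further: 20 min heating vs room temperature control held 20 min.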

Sequence	soluble fraction (log2)
HMRGGKGTVPDVTGMDAAAAVRILEKAGMNVAYIRGAGFVAEQTPAAGTKLKKGDKAYITLSWK	-0.622
HMRGGWESLTDREREIAVLAAEGHSNRTIASTLFISDRTVQSHVSRALRALGVDSRTGIPSLVTTATR	0.09
HMRGWGTVKRRTPKSGRYRASYIGPDGKRYAADHTYAAKVDADAWLSSERALITAGVWTPPTDRVT	-0.688
HMRHLSVPSQDTQQVLQRLKVELALPEGARVRSDPSDPGRRLIPFTESVPQEMIDQYPVVSINI	-0.147
HMRIAGIDIPDNKRGEVALTYIFGIGRSSSKKILKSAGIDSDKQIGKWTDDESNLVRKLIRDEYTIEGDL	-0.312
HMRIASANAIYDELLNKRDDAKLAELKQEDINLYALYILQNGSADERAALENTQGIDVVLKEIINLQNG	-0.305
HMRIGINDRIHEIVDVLRLKKSTPFEDLFSGLVTRFDLVITFLALLEMGKLRLLRLYQTDPLAPLHVEYTG	-0.0164
HMRILDFPALKTEFDQLTKDLMAKYPEDGADRVRAIIETVLGPGKKVGALQPHQAELLAEVNTSLKANL	-0.0738
HMRILGIDPGTRITGYGIIDIEGNRLRHVDNGIIKTRSSDALPLRLKVIYDGLTAVLKQYSPQAV	0.23
HMRIQTVDYNTFISMVEDGKVDAAEIQQQENRILFSDQDQKVYKTAMVPDDDLTQRLLDAGVSTNG	0.726
HMRISKRQLILESAAAIINEKGADYLTLDAVAQRAGISKGGLFYHFKSKDELIKELVNYANN	-1.56
HMRISLKAQVYEYLKQAIINGDLKVGEIYSEQYFADKLSISRTPVREAILQLQHENMVEVKANRGIIVK	-2.73
HMRITTKNYFKAISEVGFENLPEVLKKSHLVIEEKTNKGNDWGIYENDAEAKKVFDLAFDKLEEFIDRKED	0.461
HMRIVQTDYRNFLSQVESGAVRSVQIDETQIRYTALDSGGKEIVYNTGKVDDPGLVNRLYDAGVEFSQVIP	-0.132
HMRKATEVPFTAFKDSIENSHGKLSKAGLARHLADEYGMSQRNMERRINNLIDNKTIKYGNEGGLVWIG	-0.104
HMRKDWTPGAFVEAFVNDTPATRSTILAKAVSAGLSRWAADNLLRTADNDGLMVRQGSGKRNEPFTYRRGP	-0.257
HMRKEEFIRELVLELKQNVSEQVILEQKRFYEEYILTEVRGGKTEEEVIASLSEPRLLAKSIIDAAEAGGD	-1.3
HMRKKDGEAYVLPRPLKKGDSVLIYDIDKKGTVLQPPEKGGKTALIQAGIIQTRVPVSNLRLLE	0.537

Sequence	soluble fraction (log2)
HMRKKIIAQTLEEIRKSKGYSQKQVAAFIKVKPTTYNTYESGRTEPPAEILVRLSYLYRTPVDTLVQRDR	-2.13
HMRKMNDAVFYVEMSRPKRGYYTATYKLITRNPNSLPEHEITRRFFQMLEETIRKNPPYYLWTH	-0.527
HMRKPISQEIVDEVLKLAKNNPDWGYDRIAGVMKYLKYDVSATTVRHILDDNGIVPDPERRLR	0.23
HMRKRLLQLVHIGKSQLGMDDETYRSLLSQQFYQNSAKNISYSELVKLVKILQQKGAKIRLPH	-2.17
HMRKVVLEEKEANYYAEPNSESELLGVLKRGIHLTVTDVKKEAGSDGWVKLVHPDGQEGWISGRARIRV	-0.212
HMRKYKIKEELPDNIYKIIQDNPGIVQKDIYDILGREYQQNISSYIYSMDKNGVIKRDKHGNSYKLYL	-0.119
HMRLATSELVYRIRALIRDQELQPGERLGSERALAQSLGISRSDLRMALAVLEASHEVIRKIGRAGGIVVS	-3.18
HMRLHSSGEDYLKAIFILEAQHSSVRSVEVAEYMNVSKASVSHAVALLKKNGFLKMNQDYDLTER	-0.163
HMRLIALPSVTDISIRQAEATLMSIGIKVSSIQYAPSEYKDLVLEVKYRGQSIIQGAKIPEGSSVVLVAGN	-3.21
HMRLPLYLALAQTLRQEIDAKQYKIGAHLPPEDQLVVKYGVSRHTVRQALQELKNEGLITSKAGIGTIVSS	-1.56
HMRLPQEVWEKIRAAYEAHGLSFSELAEMYGVNKSNISRRAKAEGWNQAETQRLITATVENE	0.374
HMRLREETRKVDKTGLIQVDGRHYRVPDEYSQKDVQILMDDNSIMVYRKGDFVIELDKETSVYMPH	0.347
HMRMETRILTADESGIRLDAFLASRLAVSRSLAASLIDDGNVTLNGTVPKKKTAVNVGDILEVAMP	-0.987
HMRMLTKRRQDLLLELLEERGSITVSEVKDMLDASESTIRRDITALDEEGKLVKVFGGAVAAR	-0.345
HMRMSRSARLFDLLHILRSHRRAVSGQALAQQLGISIRTLYRDIASLQAQGAKIEGEPGVGYMLKP	-1.82
HMRMTKQRQAVLDELTRVTDFRSAQQIFEDLHSQGHRVGLATIYRSLQGLAEDGSVDTLRSSDGESLY	-0.206
HMRMTRQRKVILEELGKVYTHPTADEIYTMVKEKLPNISLGTVYRNLDLLAENNQVLKLETAGNIRRYD	-0.17

Source: the domain aggregation screens of Martell et al. (2025)
